The target of the test is T1, myc-tagged Tsg101 (residues 1-207) (human, UniProt Q99816 1-207).
T1 construct: range 1-207; Used as Drosophila S2 cell lysate, not purified; The tag is placed N-terminal from the name myc-Tsg101; also called myc-Tsg101(1-207); myc-Tsg101 (1-207)
T1 sequence: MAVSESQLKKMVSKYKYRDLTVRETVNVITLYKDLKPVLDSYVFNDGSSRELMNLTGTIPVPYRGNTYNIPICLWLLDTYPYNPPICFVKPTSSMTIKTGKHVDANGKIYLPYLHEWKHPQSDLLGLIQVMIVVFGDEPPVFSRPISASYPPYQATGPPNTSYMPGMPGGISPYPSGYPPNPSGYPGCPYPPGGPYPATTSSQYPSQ
The test is described as follows: plate competition assay, competitor of coated GST-p6 for myc-Tsg101(1-207).

Here are results for one molecule from patent US20040109861A1 (MYRIAD GENETICS, published 2004).

B1: p6(1-14) peptide (GAGp6 peptide containing the first 14 amino acid residues) (peptide)
peptide: LQSRPEPTAPPEES
notes: also called first 14 amino acid residues of HIV GAGp6
Consider B1, for which the binding result is recorded as “binds”.
